Measured values from patent publication US11857645B2, “Compositions of near IR closed chain, sulfo-cyanine dyes and prostate specific membrane antigen ligands” (priority 2016, dated 2024).

Legend:
[1] = system: 9 major CYP liver enzymes; experiment: reactivity to CYP liver enzymes; format: in vitro ADME; conditions: in vitro
Protocol: (§1) For example, determination of metabolic stability is commonly examined when assessing the toxicity of a compound as it is one of several major determinates in defining the oral bioavailability and systemic clearance of a compound. After a compound is administered orally, it first encounters metabolic enzymes in the gastrointestinal lumen as well as in the intestinal epithelium. After it is absorbed into the bloodstream through the intestinal epithelium, it is first delivered to the liver via the portal vein. A compound can be effectively cleared by intestinal or hepatic metabolism before it reaches systemic circulation, a process known as first pass metabolism. The stability of a compound towards metabolism within the liver as well as extrahepatic tissues will ultimately determine the concentration of the compound found in the systemic circulation and affect its half-life and residence time within the body. Cytochrome P450 (CYP) enzymes are found primarily in the liver but also in the intestinal wall, lungs, kidneys and other extrahepatic organs and are the major enzymes involved in compound metabolism. Many compounds undergo deactivation by CYPs, either directly or by facilitated excretion from the body. […]
(§2) Further safety pharmacology was assessed in vitro using the human ether-a-go-go related gene (hERG) assay for determining possible cardio-toxic effects.

[2] = mortality in dog animal model; format: in vivo; conditions: any tested dose
Source text: (§3) Other methods of assessing the toxicity of compounds include in vivo studies which administer relatively large doses of a test compound to a group of animals to determine the level which is lethal to a percentage of the population (mean lethal dose LD50 or mean lethal concentration LC50). Toxicity of a compound can also be assessed in vivo by examining whether a compound produces statistically significant negative effects on cardiac, blood pressure, central nervous system (CNS), body weight, food intake, gross or microscopic pathology, clinical pathology, or respiratory measures in an animal.
(§4) Furthermore, toxicology of the composition of formula III was also investigated in non-clinical in vivo studies in both rats and dogs.

[3] = stability in human plasma (in vitro metabolic stability studies); format: in vitro ADME
Protocol: as §1, §2

[4] = mortality in pig animal model; format: in vivo; conditions: any tested dose
Source text: as §3, §4

[5] = mortality in rat animal model; format: in vivo; conditions: any tested dose
Source text: as §3, §4

[6] = in vitro metabolic stability: breakdown into metabolites; format: in vitro ADME
Protocol: as §1, §2

[7] = stability in rat plasma (in vitro metabolic stability studies); format: in vitro ADME
Protocol: as §1, §2

[8] = in vivo
Source text: as §3, §4

[9] = stability in dog plasma (in vitro metabolic stability studies); format: in vitro ADME
Protocol: as §1, §2

[10] = system: tester strains (histidine (his) biosynthetic operon mutants); experiment: Ames reverse mutation assay; format: cell-based; conditions: any of the tested doses
Source text: The Ames reverse mutation Assay is another common toxicology assay for assessing the toxicity of a compound. The Ames Assay, utilizes several different tester strains, each with a distinct mutation in one of the genes comprising the histidine (his) biosynthetic operon (Ames, B. N., et al., (1975) Mutation Res. 31:347-363). […] The Ames Assay is capable of detecting several different types of mutations (genetic damage) that may occur in one or more of the tester strains. The practice of using an in vitro bacterial assay to evaluate the genotoxic activity of drug candidates is based on the prediction that a substance that is mutagenic in a bacterium is likely to be carcinogenic in laboratory animals, and by extension may be carcinogenic or mutagenic to humans.
as §2

CC1(C)C(/C=C/C2=C(Oc3ccc(S(=O)(=O)O)cc3)C(=C/C=C3/N(CCCS(=O)(=O)O)c4ccccc4C3(C)CCCC(=O)NCCCCC(NC(=O)CCCCCCC(=O)NCCCC[C@H](NC(=O)N[C@@H](CCC(=O)O)C(=O)O)C(=O)O)C(=O)O)/CCC2)=[N+](CCCS(=O)(=O)[O-])c2ccccc21 (stereo partly drawn) [formula III]
reactivity to CYP liver enzymes [1]: does not show any significant reactivity
mortality [2]: No mortality
stability in plasma [3]: stable
mortality [4]: No mortality
mortality [5]: No mortality
breakdown into metabolites [6]: does not appear to be broken down into metabolites
stability in plasma [7]: stable
effects on body weight, food intake, gross or microscopic pathology and clinical pathology ([8]; dog): no significant effects
effects on cardiac, blood pressure or respiratory measures ([8]; dog): no statistically significant negative effects
effects on the central nervous system (CNS) ([8]; rat): no biologically meaningful effects
stability in plasma [9]: stable
mutagenicity [10]: does not show any mutagenicity
